Consider 40 sequences from patent publication US20070066551.

Data set [1] concerns the target IL-23 (full length) (Homo sapiens) (UniProt Q9NPF7+P29460). Nature of the data set: filter. The note with it: dRmY, DPBS with Ca/Mg, BSA, RT.
Data set [2] relates to IgE (Homo sapiens), P01854-1. Put plainly: filter. Conditions: DPBS with Ca/Mg, BSA.
IgE (Homo sapiens), P01854-1, sequence (P01854 other isoform, or with tags, fused parts or gaps): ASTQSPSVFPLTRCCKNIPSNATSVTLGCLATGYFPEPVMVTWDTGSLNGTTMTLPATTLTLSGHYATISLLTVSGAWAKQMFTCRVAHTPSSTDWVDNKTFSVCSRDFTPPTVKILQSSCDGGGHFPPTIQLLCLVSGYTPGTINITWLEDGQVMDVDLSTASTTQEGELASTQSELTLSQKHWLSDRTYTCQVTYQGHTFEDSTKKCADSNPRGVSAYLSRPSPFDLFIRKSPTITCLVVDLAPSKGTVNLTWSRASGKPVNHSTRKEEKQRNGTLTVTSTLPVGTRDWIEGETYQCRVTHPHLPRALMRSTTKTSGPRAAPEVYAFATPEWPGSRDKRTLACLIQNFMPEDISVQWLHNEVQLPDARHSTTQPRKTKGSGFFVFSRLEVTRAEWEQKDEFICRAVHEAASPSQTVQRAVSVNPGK

IL-23 (full length) (Homo sapiens), sequence (Q9NPF7 20-189, chain 1 of 2): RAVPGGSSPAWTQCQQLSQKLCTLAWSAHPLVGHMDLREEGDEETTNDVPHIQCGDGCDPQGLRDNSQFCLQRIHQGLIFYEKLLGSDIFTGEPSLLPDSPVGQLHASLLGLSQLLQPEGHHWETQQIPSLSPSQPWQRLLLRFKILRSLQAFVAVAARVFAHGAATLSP
IL-23 (full length) (Homo sapiens), sequence (P29460 23-328, chain 2 of 2): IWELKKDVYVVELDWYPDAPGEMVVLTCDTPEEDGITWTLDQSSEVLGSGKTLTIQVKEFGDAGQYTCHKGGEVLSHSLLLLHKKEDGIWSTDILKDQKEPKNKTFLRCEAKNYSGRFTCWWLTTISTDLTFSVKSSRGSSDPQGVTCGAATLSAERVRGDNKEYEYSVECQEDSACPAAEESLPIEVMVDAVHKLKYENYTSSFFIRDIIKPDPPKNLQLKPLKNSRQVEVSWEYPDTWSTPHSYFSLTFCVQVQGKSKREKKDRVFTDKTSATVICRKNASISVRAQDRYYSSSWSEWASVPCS

What is called Kd is the free concentration of one partner at which half of the binding sites on the other are occupied at equilibrium, for simple one-to-one binding. For the sequence “ACAGGCAAGUAANUGGGGAGUGCGGGCGGGGUGU [ARC1683]”, the Kd in data set [1] (2'-OMe inosine for 2nd mU, 3'-idT (last t of SEQ), parent 9.8 nM) was determined as 4.8 nM.
In the case of “ACAGGCAAGUAAUUGGGGAGUGCGGGCGGGGUGN [ARC1702]”, in data set [1] (2'-OMe inosine for last mU, 3'-idT (last t of SEQ), parent 15 nM), the Kd is 10 nM.
As to “ACAGGCAAGUAAUUGGGGAGUGCGGGCGGGGUGU [ARC1648]”, in data set [1] (dI at 1st dA (position 1) [1], parent 13 nM), the Kd turned out to be 12 nM.
With “ACAGGCAAGUAAUUGGGGAGUGCGGGCGGGGUGU [ARC1650]”, the Kd in data set [1] (dI at 3rd dA (position 7) [7], parent 13 nM) was 34 nM.
As to “ACAGGCAAGUAAUUGGGGAGUGCGGGCGGGGUGU [ARC1653]”, the Kd in data set [1] (dI at 6th dA (position 12) [12], parent 13 nM) was 25 nM.
In the case of AGCCUGGGGACCCAUGGGGGGCU [ARC445], the Kd in data set [2] (2'-deoxy purines, 2'-OMe pyrimidines (dRmY), RT, other runs 12.6 nM (Table 10), with ssDNA and tRNA 14.6 (Table 8), 20 (Table 12), 8.5, 27 and 13 (Table 13)) was determined as 3 nM.
Turning to AGCCUGGGGACCCAUGGGGGGCU [ARC584], the Kd in data set [2] (dRmY, PS between 16 and 17, RT, parent 12.6 nM) came to 6.9 nM.
As to AGCCUGGGGACCCAUGGGGGGCU [ARC588], the Kd in data set [2] (dRmY, PS between 20 and 21, RT, parent 12.6 nM) was determined as 5.3 nM.
For the sequence AGCCUGGGGACCCAUGGGGGGCU [ARC597], in data set [2] (dRmY, 2'-deoxy-5mC at 3, ssDNA, tRNA, parent 20 nM, other run 16 nM (Table 13, parent 8.5 nM)), the Kd worked out at 21.5 nM.
As to AGCCUGGGGACCCAUGGGGGGCU [ARC599], in data set [2] (dRmY, 2'-deoxy-5mC at 11, ssDNA, tRNA, parent 20 nM, other run 10.4 nM (Table 13, parent 8.5 nM)), the Kd was determined as 20.5 nM.
For the sequence AGCCUGGGGACCCAUGGGGGGCU [ARC602], the Kd in data set [2] (dRmY, 2'-deoxy-5mC at 22, ssDNA, tRNA, parent 20 nM, other run 9 nM (Table 13, parent 8.5 nM)) was found to be 26 nM.
For the sequence AGCCUGGGGACCCAUGGGGGGCU [ARC608], the Kd in data set [2] (dRmY, dC in place of sixth mC (position 22, per description; printed sequence shows mC), ssDNA, tRNA, RT, parent 14.6 nM) stood at 7.9 nM.
AGCCUGGGGACCCAUGGGGGGCU [ARC702]: in data set [2] (dRmY, PS between 16 and 17, 20 and 21, RT, parent 12.6 nM), the Kd came out at 2.6 nM.
Turning to AGCCUGGGGACCCAUGGGGGGCU [ARC751], the Kd in data set [2] (dRmY, 2'-deoxy-5mC at 3 and 22, ssDNA, tRNA, parent 20 nM) was determined as 15 nM.
Take AGCCUGGGGACCCAUGGGGGGCU [ARC753]: the Kd in data set [2] (dRmY, 2'-deoxy-5mC at 11 and 22, ssDNA, tRNA, parent 20 nM) was found to be 15 nM.
Take AGCCUGGGGACCCAUGGGGGGCU [ARC756]: the Kd in data set [2] (dRmY, 2'-deoxy-5mC at 3, 11 and 22, ssDNA, tRNA, parent 20 nM) is 14 nM.
Consider AGCCUGGGGACCCAUGGGGGGCU [ARC767], for which the Kd in data set [2] (dRmY, PS between 12 and 13, 16 and 17, 20 and 21, RT, parent 12.6 nM) came to 2.7 nM.
In the case of AGCCUGGGGACCCAUGGGGGGCU [ARC768], the Kd in data set [2] (dRmY, PS between 13 and 14, 16 and 17, 20 and 21, RT, parent 12.6 nM) came to 3.5 nM.
For the sequence AGCCUGGGGACCCAUGGGGGGCU [ARC914], the Kd in data set [2] (dRmY, 2'-deoxy-5mC at 3, dC at 22, ssDNA, tRNA, parent 27 nM) was 11.9 nM.
As to AGCCUGGGGACCCAUGGGGGGCU [ARC915], the Kd in data set [2] (dRmY, 2'-deoxy-5mC at 11, dC at 22, ssDNA, tRNA, parent 27 nM) was determined as 16.9 nM.
As to AGCCUGGGGACCCAUGGGGGGCU [ARC916], the Kd in data set [2] (dRmY, 2'-deoxy-5mC at 3, dC at 12, ssDNA, tRNA, parent 27 nM) turned out to be 13.7 nM.
Consider AGCCUGGGGACCCAUGGGGGGCU [ARC918], for which the Kd in data set [2] (dRmY, 2'-deoxy-5mC at 22, dC at 12, ssDNA, tRNA, parent 27 nM) is 14.6 nM.
For the sequence AGCCUGGGGACCCAUGGGGGGCU [ARC920], in data set [2] (dRmY, 2'-deoxy-5mC at 3 and 22, dC at 12, ssDNA, tRNA, parent 27 nM), the Kd is 12.8 nM.
As to AGCCUGGGGACCCAUGGGGGGCU [ARC921], the Kd in data set [2] (dRmY, 2'-deoxy-5mC at 11 and 22, dC at 12, ssDNA, tRNA, parent 13 nM) was 8.5 nM.
As to AGCCUGGGGACCCAUGGGGGGCU [ARC925], the Kd in data set [2] (dRmY, 2'-deoxy-5mC at 3, dC at 12 and 22, ssDNA, tRNA, parent 13 nM) came to 8.1 nM.
For AGCCUGGGGACCCAUGGGGGGCU [ARC926], in data set [2] (dRmY, 2'-deoxy-5mC at 11, dC at 12 and 22, ssDNA, tRNA, parent 13 nM), the Kd stood at 5.5 nM.
On to AGCCUGGGGACCCAUGGGGGGCU [ARC1335], for which, in data set [2] (ARC445 with 2'-OMe purines at 1, 2, 7, 10, 14, 17, other purines 2'-deoxy, 2'-OMe pyrimidines, 3'-idT (last t of SEQ), RT, other runs 15 nM (Table 9), 2.8 nM (Table 11)), the Kd is 0.3 nM.
On to AGCCUGGGGACCCAUGGGGGGCU [ARC1548], for which, in data set [2] (as ARC1335 with dI at 2, 3'-idT [dI at 2 (parent base G), other modifications as ARC1335, 3'-idT], RT), the Kd stood at 3.3 nM.
AGCCUGGGGACCCAUGGGGGGCU [ARC1562] had a Kd in data set [2] (as ARC1335 with dI at 16, 3'-idT [16], RT) of 0.6 nM.
Sequence AGCCUGGGGACCCAUGGGGGGCU [ARC1563] showed a Kd in data set [2] (as ARC1335 with dI at 17, 3'-idT [17], RT) of 2.2 nM.
AGCCUGGGGACCCAUGGGGGGCU [ARC1564] displayed a Kd in data set [2] (as ARC1335 with dI at 18, 3'-idT [18], RT) of 0.5 nM.
Turning to AGCCUGGGGACCCAUGGGGGGCU [ARC1565], the Kd in data set [2] (as ARC1335 with dI at 19, 3'-idT [19], RT) is 1.4 nM.
AGCCUGGGGACCCAUGGGGGGCU [ARC1566]: the Kd in data set [2] (as ARC1335 with dI at 20, 3'-idT [20], RT, other run 8 nM (Table 9, parent ARC1335 15 nM)) is 0.1 nM.
Regarding AGCCUGGGGACCCNUGGGGGGCU [ARC1560], in data set [2] (as ARC1335 with dI at 14, 3'-idT, RT, parent ARC1335 15 nM), the Kd turned out to be 3 nM.
As to AGCCUGGGGACCCNUGGGGNGCU [ARC1647], in data set [2] (as ARC1335 with dI at 14 and 20, 3'-idT, RT, parent ARC1335 15 nM), the Kd came out at 1 nM.
In the case of AGCCUGGGGACCCRUGGGGGGCU [ARC2047], the dissociation constant (Kd) in data set [2] (as ARC1335 with 2'-OMe-2-aminopurine at 14, 3'-idT, RT, parent 2.8 nM) came out at 4.8 nM.
In the case of AGCCUGGRGACCCAUGGGGGGCU [ARC2044], in data set [2] (as ARC1335 with 2'-deoxy-2-aminopurine at 8, 3'-idT, RT, parent 2.8 nM), the Kd is 3.9 nM.
On to AGCCUGGRGACCCRUGGGGGGCU [ARC2360], for which the Kd in data set [2] (as ARC1335 with 2'-deoxy-2-aminopurine at 8 and 2'-OMe-2-aminopurine at 14, 3'-idT, RT, parent 2.8 nM) came to 2.7 nM.
Regarding RGCCUGGGGACCCAUGGGGGGCU [ARC2040], the Kd in data set [2] (as ARC1335 with 2'-OMe-2-aminopurine at 1, 3'-idT, RT, parent 2.8 nM) was found to be 18.7 nM.
Turning to RGCCUGGRGACCCRUGGGGGGCU [ARC2361], in data set [2] (as ARC1335 with 2'-OMe-2-aminopurine at 1 and 14 and 2'-deoxy-2-aminopurine at 8, 3'-idT, RT, parent 2.8 nM), the Kd came out at 0.8 nM.
